The text below walks through data of patent US20240141039A1 (AGENUS, published 2024).

What is called Kd is a measure of binding affinity in units of concentration. By koff is commonly meant the first-order rate constant of dissociation. A word on the kon: it is the rate constant with which the complex forms. The term IC50 denotes the concentration that inhibits the measured activity by half. What is called EC50 (read off the curve) is the concentration at which the effect is half-maximal.

Test [1] addresses T1, full-length isoform 2 ECD of human CD96 with a C89S mutation (His-tagged) (human, UniProt P40200 22-519).
T1 construct: also called His-tagged isoform 2 of human CD96 with a C89S mutation; human CD96 extracellular domain isoform 2 C89S
T1 sequence: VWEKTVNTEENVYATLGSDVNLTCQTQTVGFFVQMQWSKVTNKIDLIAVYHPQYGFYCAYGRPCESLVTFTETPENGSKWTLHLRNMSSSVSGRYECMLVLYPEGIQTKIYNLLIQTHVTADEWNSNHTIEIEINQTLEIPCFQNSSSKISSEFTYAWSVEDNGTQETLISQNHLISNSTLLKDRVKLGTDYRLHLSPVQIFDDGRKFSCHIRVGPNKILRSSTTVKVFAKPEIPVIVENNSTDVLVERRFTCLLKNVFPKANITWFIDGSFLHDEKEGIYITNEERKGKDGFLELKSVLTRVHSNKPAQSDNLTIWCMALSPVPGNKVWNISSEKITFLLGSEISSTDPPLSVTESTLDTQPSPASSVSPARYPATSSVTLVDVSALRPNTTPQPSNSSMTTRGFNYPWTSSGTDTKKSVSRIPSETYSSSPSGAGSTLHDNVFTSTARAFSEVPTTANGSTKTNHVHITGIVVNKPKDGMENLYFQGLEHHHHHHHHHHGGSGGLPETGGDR
As to the kind of experiment: SPR Biacore T200, Protein A capture, 1:1 model, experiment #1. The protocol:
(§1) Briefly, surface plasmon resonance experiments were performed using a Biacore T200 instrument, and the association rate (kₐ), dissociation rate (kd), and dissociation constant (KD) were calculated from each experiment using a 1:1 binding model with Biacore T200 Evaluation Software.
(§2) Multispecific molecules were captured using a 30-sec injection at a flow rate of 10 μl/min to reach about 350 resonance units (RUs). […] The sensor chip was regenerated between cycles with two 30-sec injections of 10 mM glycine, pH 1.5. Sensorgrams were evaluated and fit to a simple Langmuir 1:1 interaction model using the global data analysis option of BIAevaluation 3.0 software. Data quality was verified by visually inspecting deviations and curve fitting, and by evaluating the parameters of Rₘₐₓ, Chi2, and Tc.
On the technique in general: SPR reads the build-up and loss of mass on a sensor chip optically.

Test [2] concerns the target T1, full-length isoform 2 ECD of human CD96 …. As to the kind of experiment: SPR Biacore T200, Protein A capture, 1:1 model, experiment #2. The protocol:
as §1, §2

In test [3] the target is T2, full-length ECD of cynomolgus monkey TIGIT (His-tagged) (cynomolgus monkey).
T2 construct: also called His-tagged cynomolgus monkey TIGIT; cyno TIGIT extracellular domain
The test is described as above. The protocol: as §1, §2

Test [4] has as its target T3, wild type full-length cynomolgus monkey TIGIT expressed on CHO cells (cynomolgus monkey, UniProt A0A7N9I9V4 89-312).
T3 construct: whole, on cells; also called cynomolgus TIGIT-CHO cells
Briefly: flow cytometry, blocking of CD155-Fc-PE binding to cynomolgus TIGIT CHO cells, geomean of 2 experiments. On the technique in general: In flow cytometry, cells or beads pass a laser one at a time.

The target of test [5] is T4, full-length human FcγRIIIa variant V/V expressed on CHO cells (human, UniProt P08637 17-254).
T4 construct: whole, on cells; also called human FcγRIIIa-CHO (variant V/V); human FcγRIIIa (V/V) CHO cells
T4 sequence (P08637 other isoform, or with tags, fused parts or gaps mutant limits assumed): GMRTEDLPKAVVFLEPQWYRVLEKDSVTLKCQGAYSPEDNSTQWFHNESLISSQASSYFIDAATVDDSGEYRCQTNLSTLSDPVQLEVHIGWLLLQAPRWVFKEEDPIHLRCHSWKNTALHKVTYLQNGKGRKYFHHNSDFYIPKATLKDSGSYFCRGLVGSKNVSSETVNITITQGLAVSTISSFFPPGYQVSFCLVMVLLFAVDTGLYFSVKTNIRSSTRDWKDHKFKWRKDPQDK
Briefly: flow cytometry on CHO cells expressing human FcγRIIIa variant V/V, PE anti-human IgG Fc detection. On the procedure: The ability of anti-TIGIT×CD96 multispecific molecules to bind to variant V/V or variant F/F of human FcγRIIIa expressed on the surface of CHO cells was assessed. Briefly, CHO cells were transfected with a vector encoding full-length human FcγRIIIa (human FcγRIIIa-CHO) variant V/V or F/F, and clones stably expressing FcγRIIIa (variant V/V or variant F/F) were selected.
For the antibody binding assay, a frozen aliquot of human FcγRIIIa-CHO (variant V/V or variant F/F) cells was thawed at 37° C. and then transferred to a tube containing DPBS supplemented with 0.5% Bovine Serum Albumin and 0.05% Sodium Azide (FACS Buffer). Cells were centrifuged at 300 g for five minutes. The supernatant was discarded, and cells resuspended in FACS buffer were seeded in a 96-well U-bottom tissue culture plate at a density of 2×10⁵ cells per well in 50 μL. In a separate microplate, a 2× concentrated intermediate stock of each multispecific molecule was prepared. […] After a 30-minute incubation on ice, the cells were washed twice with cold FACS Buffer, and the cells were analyzed by flow cytometry (BD LSR Fortessa Flow Cytometer). The data were analyzed using the FlowJo software by sequentially gating the FSC-A vs. SSC-A, and SSC-H vs. SSC-A. Mean fluorescence intensity (MFI) values for PE were calculated, and the data were plotted by GraphPad Prism software.

T3 sequence (A0A7N9I9V4 entry or part of it): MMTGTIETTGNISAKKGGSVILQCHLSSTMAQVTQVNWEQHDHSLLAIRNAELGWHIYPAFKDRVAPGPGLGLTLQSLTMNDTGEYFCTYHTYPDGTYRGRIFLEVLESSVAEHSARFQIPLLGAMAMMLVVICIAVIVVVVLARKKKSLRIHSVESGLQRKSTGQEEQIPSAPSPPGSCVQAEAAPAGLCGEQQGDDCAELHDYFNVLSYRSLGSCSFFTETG

B1: anti-TIGIT×CD96 multispecific molecule BA123 (bispecific antibody, human IgG1, kappa, lambda)
heavy 1: QVQLVQSGAEVKKPGASVKVSCKASGYTFTSYGISWVRQAPGQGLEWMGWISAYNANTNYAQKLQGRVTMTTDTSTSTAYMELRSLRSDDTAVYYCARSAGVLGGMDVWGRGTLVTVSSASTKGPSVFPLAPSSKSTSGGTAALGCLVKDYFPEPVTVSWNSGALTSGVHTFPAVLQSSGLYSLSSVVTVPSSSLGTQTYICNVNHKPSNTKVDKRVEPKSCDKTHTCPPCPAPELLGGPDVFLFPPKPKDTLMISRTPEVTCVVVDVSHEDPEVKFNWYVDGVEVHNAKTKPREEQYNSTYRVVSVLTVLHQDWLNGKEYKCKVSNKALPAPIEKTISKAKGQPREPQVYTLPPSREEMTKNQVSLSCAVKGFYPSDIAVEWESNGQPENNYKTTPPVLDSDGSFFLVSKLTVDKSRWQQGNVFSCSVMHEALHNHYTQKSLSLSPG
light 1: not shown
heavy 2: EVQLVQSGAEVKKPGSSVKVSCKASGYTFASYGISWVRQAPGQGLEWMGGITPFFNRVDVAEKFQGRVTITADKSTSTAYIELSSLRSEDTAVYYCARDLRRGGVGDAFDIWGRGTLVTVSSASTKGPSVFPLAPSSKSTSGGTAALGCLVKDYFPEPVTVSWNSGALTSGVHTFPAVLQSSGLYSLSSVVTVPSSSLGTQTYICNVNHKPSNTKVDKRVEPKSCDKTHTCPPCPAPELLGGPDVFLFPPKPKDTLMISRTPEVTCVVVDVSHEDPEVKFNWYVDGVEVHNAKTKPREEQYNSTYRVVSVLTVLHQDWLNGKEYKCKVSNKALPLPEEKTISKAKGQPREPQVYTLPPSREEMTKNQVSLWCLVKGFYPSDIAVEWESNGQPENNYKTTPPVLDSDGSFFLYSKLTVDKSRWQQGNVFSCSVMHEALHNHYTQKSLSLSPG
light 2: QSALTQPRSVSGSPGQSVTISCTGTSPDVGSHAYRSWYQQHPGKAPKLMIYEVSYRPSGVSNRFSGSKSGNTASLTISGLQAEDEADYYCSSYPPSSATVFGAGTKLTVLGQPKAAPSVTLFPPSSEELQANKATLVCLISDFYPGAVTVAWKADSSPVKAGVETTTPSKQSNNKYAASSYLSLTPEQWKSHRSYSCQVTHEGSTVEKTVAPTEC
notes: copies: 1 + 1 + 1 + 1
As for B1, in test [1], binding was put at a Kd of 79 nM, the koff came to 0.00125 s⁻¹ and the kon was found to be 15800 M⁻¹ s⁻¹. In test [2], binding was characterised by a dissociation constant (Kd) of 85 nM, the koff came out at 0.00083 s⁻¹ and the on-rate constant (kon) amounted to 9760 M⁻¹ s⁻¹. Also, in test [3], the Kd came out at 4.27 nM, the koff was determined as 0.00135 s⁻¹ and the kon came to 315000 M⁻¹ s⁻¹. The IC50 in test [4] amounted to 2.35 µg/mL. Further, in test [5], the “EC50 (read off the curve)” value was roughly 0.3 µg/mL.

B2: anti-TIGIT×CD96 multispecific molecule BA127 (bispecific antibody, human IgG1, kappa, lambda)
heavy 1: QVQLVQSGAEVKKPGASVKVSCKASGYTFTTYALHWVRQAPGQRLEWMGWINTGSGDTKYSQKFQGRVTITRDTSASTAYMELSSLRSEDTAVYYCARSLGVYYGMDVWGQGTLVTVSSASTKGPSVFPLAPSSKSTSGGTAALGCLVKDYFPEPVTVSWNSGALTSGVHTFPAVLQSSGLYSLSSVVTVPSSSLGTQTYICNVNHKPSNTKVDKRVEPKSCDKTHTCPPCPAPELLGGPDVFLFPPKPKDTLMISRTPEVTCVVVDVSHEDPEVKFNWYVDGVEVHNAKTKPREEQYNSTYRVVSVLTVLHQDWLNGKEYKCKVSNKALPAPIEKTISKAKGQPREPQVYTLPPSREEMTKNQVSLSCAVKGFYPSDIAVEWESNGQPENNYKTTPPVLDSDGSFFLVSKLTVDKSRWQQGNVFSCSVMHEALHNHYTQKSLSLSPG
light 1: not shown
heavy 2: EVQLVQSGAEVKKPGSSVKVSCKASGYTFASYGISWVRQAPGQGLEWMGGITPFFNRVDVAEKFQGRVTITADKSTSTAYIELSSLRSEDTAVYYCARDLRRGGVGDAFDIWGRGTLVTVSSASTKGPSVFPLAPSSKSTSGGTAALGCLVKDYFPEPVTVSWNSGALTSGVHTFPAVLQSSGLYSLSSVVTVPSSSLGTQTYICNVNHKPSNTKVDKRVEPKSCDKTHTCPPCPAPELLGGPDVFLFPPKPKDTLMISRTPEVTCVVVDVSHEDPEVKFNWYVDGVEVHNAKTKPREEQYNSTYRVVSVLTVLHQDWLNGKEYKCKVSNKALPLPEEKTISKAKGQPREPQVYTLPPSREEMTKNQVSLWCLVKGFYPSDIAVEWESNGQPENNYKTTPPVLDSDGSFFLYSKLTVDKSRWQQGNVFSCSVMHEALHNHYTQKSLSLSPG
light 2: QSALTQPRSVSGSPGQSVTISCTGTSPDVGSHAYRSWYQQHPGKAPKLMIYEVSYRPSGVSNRFSGSKSGNTASLTISGLQAEDEADYYCSSYPPSSATVFGAGTKLTVLGQPKAAPSVTLFPPSSEELQANKATLVCLISDFYPGAVTVAWKADSSPVKAGVETTTPSKQSNNKYAASSYLSLTPEQWKSHRSYSCQVTHEGSTVEKTVAPTEC
notes: Anti-CD96 arm = BA139, anti-TIGIT arm = BA150; copies: 1 + 1 + 1 + 1
Turning to B2, the Kd amounted to 19.6 nM in test [1], 19.7 nM in test [2] and 3.7 nM in test [3]. Further, the results for the dissociation rate constant (koff) in test [1], in test [2] and in test [3] were 0.00116 s⁻¹, 0.000796 s⁻¹ and 0.00129 s⁻¹, respectively. Further, the kon in test [1] is 59200 M⁻¹ s⁻¹; in test [2] it was 40500 M⁻¹ s⁻¹; in test [3], 348000 M⁻¹ s⁻¹. The IC50 in test [4] was 2.81 µg/mL. The “EC50 (read off the curve)” value in test [5] was roughly 0.2 µg/mL.
